Results reported in the supplement of paper PMC10126150.
± gives the standard deviation of the averaged measurements.

Tested on: ATP
Experiment: switch fluorescence ratio, 500 uM ATP over buffer (Cy3 cluster intensity, sum of 5 cycles each) (fold (ratio)); higher = stronger signal-on switching upon ATP binding; sequences stand for … in TCGTCGGCAGCGTCAGATGTGTATAAGAGACAGTTTTTTTTTTTTTTTTTTTTTTTTT…TC
Conditions: aptamer strand: ATP DNA aptamer (quencher-CACCTGGGGGAGTATTGCGGAGGAAGG + anchor), 100 nM annealed; ATP concentration: 500 uM
Procedure, shortened: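 Exposure to 500 uM ATP lasted 15 min at 22 °C before imaging, and a selection-buffer image was taken beforehand, for Cy3-labelled switching-strand clusters on a modified Illumina MiSeq flow-cell annealed to 100 nM quencher-labelled ATP aptamer. Five buffer/ATP cycles were run with NaOH stripping and re-annealing between them. The fluorescence ratio per cluster is summed target-cycle over summed buffer-cycle Cy3 intensity, averaged per switch-domain sequence. Clusters outside 100-1000 RFU were excluded.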

Sequence	switch fluorescence ratio
AGTAAGTGGG	0.956 ± 0.048
AAACGATTTA	1.018 ± 0.0055
AACGCCAGGC	1.01 ± 0.028
GGTATATTTT	1.03 ± 0.1
CACGGATTGC	1.18 ± 0.039
GCGTTTAATA	0.997 ± 0.014
TAAAATTCGG	1.01 ± 0.018
AATTCCTACG	2.571 ± 0.02
TAGGTTAAGG	1 ± 0.034
GAAGGAGAAG	0.955 ± 0.0083
TATGTTTAAT	0.994 ± 0.041
ACGATTTTAG	1.04 ± 0.041
TTAGGGAATT	0.989 ± 0.046
AGACTGGTTG	0.993 ± 0.035
TGGTTAAAAT	1 ± 0.025
GGGGCGGGCC	0.971 ± 0.021
GTTAAAAGTG	0.987 ± 0.03
CGTTGTTGTA	1.01 ± 0.02
TAATGGGTGG	1.02 ± 0.083
CGGGCAGCTG	1.04 ± 0.048
AGGAGGACGG	1.01 ± 0.042
CAGGCTGTCG	1.02 ± 0.036

Sequence	switch fluorescence ratio
TGCGGGGTAC	1.25 ± 0.045
TCTGTCAAGG	1 ± 0.034
ACTCACGGGA	1.46 ± 0.36
GTTGTAAGGT	0.986 ± 0.034
GGGGTAGGGA	1 ± 0.019
TCCAGTTAGT	0.977 ± 0.013
CTGGTCAATG	1.01 ± 0.063
CAGGAACCGA	1.14 ± 0.017
ACTACGATAT	1.34 ± 0.022
GCGGGGGCGG	1.01 ± 0.018
GCCGTCTGCG	0.957 ± 0.011
AGAAGGGGGT	1.02 ± 0.035
AAAGGAGCGT	0.992 ± 0.041
GTCCATCCCA	1.001 ± 0.009
GTGGATTGGA	1.05 ± 0.024
CGAAGGTTTC	1.034 ± 0.0023
ACCGAATGTT	0.999 ± 0.022
TCAAATGGCG	0.923 ± 0.023
AGTAAATCCT	1.16 ± 0.0084
CGGTTTTTTG	0.964 ± 0.014
GACGACGGGT	1.27 ± 0.041
ATGAAGGGGA	1 ± 0.049

Sequence	switch fluorescence ratio
TGTATTTAC	1.11 ± 0.048
TTTTGTTCAG	0.985 ± 0.037
GGATCGAGAC	0.9755 ± 0.0034
CGATGTTTGG	0.988 ± 0.025
AATGTTCATG	1.031 ± 0.0061
TTCCAGTCC	1.06 ± 0.027
GATAAATGTT	0.985 ± 0.01
TAGACTTTAT	1.02 ± 0.029
TAAGCGGCGA	0.973 ± 0.013
AAGTTCGGGG	1.05 ± 0.088
CTCGGGGTTG	1.022 ± 0.008
GGCGGGTTGG	0.998 ± 0.048
GTTTTTTAAG	0.9877 ± 0.0089
CAACTCTCTG	1 ± 0.038
AAGTGCCCCA	1.05 ± 0.016
TATTTTAGAA	0.996 ± 0.016
TTCGGACGGT	1.04 ± 0.06
TTCGTACCGC	1.09 ± 0.029
TTGGTGCGGA	0.975 ± 0.056
AGAGAGGAGT	0.982 ± 0.021
TTTGTTCCTC	1.103 ± 0.005
CGCAAACGCA	3.62 ± 0.17

Sequence	switch fluorescence ratio
TGCAGAGGAA	1.03 ± 0.018
CACAGGGGGA	2.67 ± 1.3
GGAGGGCGTG	0.988 ± 0.021
TCGGTGATAC	4.52 ± 1.3
TCAAGTTTTC	0.987 ± 0.034
GAGGGAGTCG	1.01 ± 0.022
CGTTGATAAG	0.997 ± 0.022
GGGAGTAGCG	0.997 ± 0.022
TACTTTAGGT	1.05 ± 0.019
ACGATGAAGA	1.009 ± 0.0026
TAATACTATT	1.05 ± 0.016
TAGTTGGTAC	0.9925 ± 0.0083
GTGTGTTAAC	0.9738 ± 0.0095
GTTTTTCCAG	0.9844 ± 0.0061
GTGTCCGGGC	0.979 ± 0.025
ATAGTAGTAG	0.998 ± 0.011
GGTATCGCGG	1 ± 0.023
GCAAGTTTGC	1.04 ± 0.042
ATTAGGGTCT	0.986 ± 0.025
